Source: patent publication US20110086026A1 (ROCHE PALO ALTO, published 2011)
Each block holds one molecule with its values, some of them ahead of it.

Legend:
[1] = molecular target: Cynomolgus IL-13Rα1 expressed in transfected Ba/F3 cells (Cynomolgus); assay: FACS on Ba/F3 cells transfected with Cynomolgus IL-13Rα1; negative control
[2] = molecular target: Cynomolgus IL-13Rα1 expressed in transfected Ba/F3 cells (Cynomolgus); assay: FACS, transfected against parental Ba/F3 cells; negative control
[3] = molecular target: Cynomolgus IL-13Rα1 expressed in transfected Ba/F3 cells (Cynomolgus); assay: FACS on Ba/F3 cells transfected with Cynomolgus IL-13Rα1, 10 µg/ml
human IL-13Rα1 [4] = molecular target: T1, human IL-13Rα1 (human, UniProt P78552 22-427); assay: cell-based or functional assay
T1 sequence (looked up): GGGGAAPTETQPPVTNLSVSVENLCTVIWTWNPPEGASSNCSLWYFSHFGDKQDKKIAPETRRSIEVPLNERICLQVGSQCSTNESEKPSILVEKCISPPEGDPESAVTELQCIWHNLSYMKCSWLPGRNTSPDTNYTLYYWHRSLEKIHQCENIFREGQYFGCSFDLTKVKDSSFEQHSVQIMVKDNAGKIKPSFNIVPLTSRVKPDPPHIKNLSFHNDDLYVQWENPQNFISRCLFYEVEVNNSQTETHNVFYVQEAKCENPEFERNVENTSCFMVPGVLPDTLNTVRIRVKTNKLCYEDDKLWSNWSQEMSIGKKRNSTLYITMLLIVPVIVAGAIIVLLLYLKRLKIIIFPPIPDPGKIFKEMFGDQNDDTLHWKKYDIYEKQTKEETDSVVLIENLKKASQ

[5] = molecular target: extracellular domain of IL-13Rα1 (R&D Systems, UK) (human) (UniProt P78552); assay: ELISA, immobilized extracellular domain of human IL-13Rα1, detection with anti-goat IgG-POD, OD 405nm-492nm
[6] = molecular target: Chimeric protein murine IL-13Rα1:hFc (R&D Systems, UK) (mouse) (UniProt O09030); assay: ELISA, immobilized murine IL-13Rα1:hFc, detection with anti-goat IgG-POD, OD 405nm
Chain of Chimeric protein murine IL-13Rα1:hFc (R&D Systems, UK) (mouse) (O09030 26-340, stated change not applied): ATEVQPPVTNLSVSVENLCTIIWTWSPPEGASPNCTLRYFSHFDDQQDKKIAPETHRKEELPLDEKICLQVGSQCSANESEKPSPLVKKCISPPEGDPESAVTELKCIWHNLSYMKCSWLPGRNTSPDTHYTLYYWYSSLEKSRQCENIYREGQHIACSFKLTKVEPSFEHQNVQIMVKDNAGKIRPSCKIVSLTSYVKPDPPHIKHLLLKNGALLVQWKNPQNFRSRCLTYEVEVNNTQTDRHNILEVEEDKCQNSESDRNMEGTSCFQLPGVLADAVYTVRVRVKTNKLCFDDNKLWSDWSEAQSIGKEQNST

[7] = molecular target: Cynomolgus IL-13Rα1 expressed in transfected Ba/F3 cells (Cynomolgus); assay: FACS, transfected against parental Ba/F3 cells, 10 µg/ml
human IL-13Rα1 [8] = molecular target: T1, human IL-13Rα1; assay: displacement of 125I-IL-13 on CHO cells expressing human IL-13Rα1 and IL-4Rα
[9] = molecular target: Cynomolgus IL-13Rα1 expressed in transfected Ba/F3 cells (Cynomolgus); assay: FACS, transfected against parental Ba/F3 cells; secondary reagent only
[10] = molecular target: Cynomolgus IL-13Rα1 expressed in transfected Ba/F3 cells (Cynomolgus); assay: FACS on Ba/F3 cells transfected with Cynomolgus IL-13Rα1; secondary reagent only
[11] = molecular target: T2, extracellular domain of hIL-13Rα1 cleaved from hIL-13Rα1:hFc chimeric protein (human, UniProt P78552 22-343); assay: SPR Biacore 3000, C1 chip, HuMab captured by anti-hFcγ, cleaved hIL-13Rα1 as analyte, 1:1 Langmuir model
T2 construct: extracellular domain; also called Cleaved hIL-13Rα1 molecules (MW 40 kDa)
T2 sequence (looked up): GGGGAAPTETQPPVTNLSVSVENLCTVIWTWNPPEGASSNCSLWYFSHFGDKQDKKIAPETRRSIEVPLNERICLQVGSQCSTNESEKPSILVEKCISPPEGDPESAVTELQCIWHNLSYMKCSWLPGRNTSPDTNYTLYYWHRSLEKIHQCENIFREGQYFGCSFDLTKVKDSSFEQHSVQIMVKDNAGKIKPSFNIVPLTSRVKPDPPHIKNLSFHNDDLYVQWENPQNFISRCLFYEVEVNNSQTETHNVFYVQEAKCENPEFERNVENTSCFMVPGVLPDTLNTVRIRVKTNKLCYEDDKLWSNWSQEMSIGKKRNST
Method: For interaction analysis, a Biacore 3000 instrument was used. Running and reaction buffer was HBS-P (10 mM HEPES, 150 mM NaCl, 0.005% polysurfactant P, pH 7.4) at 25° C. Capturing antibody molecules (anti-hFcγ) were amine-coupled at a concentration of 100 μg/ml at a flow rate of 5 μl/min for 20 minutes. HuMabs were injected at concentrations of 10 μg/ml at a flow rate of 10 μl/min for 30 seconds. Cleaved hIL-13Rα1 molecules (MW 40 kDa) were injected for 200 seconds at seven concentrations between 1.56 nM and 100 nM and washed with HBS-P for five minutes. Regeneration of the surface was accomplished by two injections of 100 mM HCl for 1 min each at a flow rate of […]. The chip, assay format and sequence of injections and kinetic data correspond to the description in the following Table 3. Kinetic data were calculated by fitting kinetic data to a 1:1 Langmuir binding model.

[12] = molecular target: T2, extracellular domain of hIL-13Rα1 …; assay: SPR Biacore 3000, CM5 chip, HuMab captured by anti-hFcγ, cleaved hIL-13Rα1 as analyte, bivalent analyte model
Method: (§1) In these experiments, the affinity of the original IgG1 derived from hybridoma was compared with the affinities of the recombinant variant IgG1-Ala-Ala. For interaction analysis, a Biacore 3000 instrument was used. Running and reaction buffer was HBS-P (10 mM HEPES, 150 mM NaCl, 0.005% polysurfactant P, pH 7.4) at 25° C. Capturing antibody molecules (anti-hFcγ) were amine-coupled at a concentration of 20 μg/ml at a flow rate of 5 μl/min for 20 minutes. HuMabs were injected at concentrations of 10 μg/ml at a flow rate of 10 μl/min for 1 minute. Cleaved hIL-13 Rα1 molelcules (analyte) were injected for five minutes at eight concentrations between 1.56 nM and 200 nM and washed with HBS-P for five minutes. Regeneration of the surface was accomplished by two injections of 100 mM HCl for 1 min each. The chip, assay format and sequence of injections and kinetic data correspond to the description in Table 4. Kinetic data were calculated by fitting kinetic data to a bivalent analyte binding model.

[13] = molecular target: T2, extracellular domain of hIL-13Rα1 …; assay: SPR Biacore 3000, CM5 chip, HuMab captured by anti-hFcγ, cleaved hIL-13Rα1 as analyte, bivalent analyte model (ka1)
Method: as §1

[14] = molecular target: T2, extracellular domain of hIL-13Rα1 …; assay: SPR Biacore 3000, CM5 chip, HuMab captured by anti-hFcγ, cleaved hIL-13Rα1 as analyte, bivalent analyte model (kd1)
Method: as §1

MFI Ba/F3 Cyno IL-13Rα1 [1]: 10.2 MFI
Fold Increase in MFI in the presence of Cyno IL-13Rα1 [2]: 6.7
Molecule: Normal human IgG1 (Nordic) (antibody)

MFI Ba/F3 Cyno IL-13Rα1 [3]: 21.2 MFI
IC50, IL-13-induced Stat-6 phosphorylation in BSMC (human IL-13Rα1 [4]): 18.6 nM
IC50, TF-1 proliferation in response to IL-13 (human IL-13Rα1 [4]): 13.5 nM
IC50 for IL-4-induced TF-1 proliferation (human IL-13Rα1 [4]): 74.4 nM
IC50 for inhibiting of CD23 upregulation on B-lymphocytes (IL-13 induced) (human IL-13Rα1 [4]): 13.6 nM
IC50 for inhibition of IL-13 induced CD23 upregulation on human monocytes (human IL-13Rα1 [4]): 62.9 nM
average IC50, eotaxin release of HFL-1 cells in response to IL-13 (human IL-13Rα1 [4]): 11.5 nM
EC50 (read off the curve) [5]: 0.6 nM
EC50 (read off the curve) [6]: 0.2 nM
Fold Increase in MFI in the presence of Cyno IL-13Rα1 [7]: 18
IC50 (human IL-13Rα1 [8]): 84.8 nM
Molecule: polyclonal goat anti-hIL-13Rα1 antibody AF152 (R&D Systems)

Kd [11]: 0.21 nM
koff [11]: 0.00029 s⁻¹
kon [11]: 1.4e+06 M⁻¹ s⁻¹
Kd [12]: 2.8 nM
kon [13]: 153000 M⁻¹ s⁻¹
koff [14]: 0.00042 s⁻¹
B1: LC5002-005, mutant L234A; L235A (antibody, V domains shown)
VH: EVQVLDSGGGLVQPGGSLRLSCTASGFTFRLYTMSWVRQTPGRGLEWVSGISGSGLSTYFADSVKGRFTISRDNSKNTVYLQMNSLRAEDTAVYYCAKEGDWIYFDSWGQGTLVIVSS
VL: DIQMTQSPSSLSASVGDRVTITCRASQGISSWLAWYQQKPEKAPKSLIYAASSLQSGVPSRFSGSGSGTDFTLTISSLQPEDFATYYCQQYNSHPPTFGQGTKLEIKR
notes: Recombinant IgG1 variant; also called IgG1 ala-ala LC5002-005; recombinant variant IgG1-Ala-Ala

More lines, now with the values behind:

Molecule: Anti human IgG-FITC only (antibody)
Fold Increase in MFI in the presence of Cyno IL-13Rα1 [9]: 2.2
MFI Ba/F3 Cyno IL-13Rα1 [10]: 5.5 MFI

Molecule: Normal goat IgG (antibody)
MFI Ba/F3 Cyno IL-13Rα1 [1]: 5.7 MFI
Fold Increase in MFI in the presence of Cyno IL-13Rα1 [2]: 2.4
